Experimental data from publication PMC8464072, “YB-1 unwinds mRNA secondary structures in vitro and negatively regulates stress granule assembly in HeLa cells”.

Experiments:
[1] = target: T1, YB-1-RK (UniProt P67809 1-180, R97A;K98A); assay: NMR (1H-15N HSQC); no multiple peaks; stem not destabilized; NMR: 25 mM phosphate pH 6.8, 25 mM KCl, 298 K, 50-100 uM protein; EMSA: 20 mM HEPES pH 7.5, 60 mM KCl, room temperature; melting: 10 mM HEPES-KOH pH 7.6, 130 mM KCl, 30 C; conditions: protein: recombinant; tags: His tag (Ni-NTA); hairpin, 10 bp stem, 4 nt loop
T1 sequence (P67809 1-180 R97A/K98A): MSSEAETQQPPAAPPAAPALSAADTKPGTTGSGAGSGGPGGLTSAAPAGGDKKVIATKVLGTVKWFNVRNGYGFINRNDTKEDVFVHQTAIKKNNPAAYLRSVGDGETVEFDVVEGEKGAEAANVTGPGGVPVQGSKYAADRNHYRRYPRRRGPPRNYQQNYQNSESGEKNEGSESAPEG

[2] = target: T2, YB-1-KY (UniProt P67809 1-180, K137A;Y138A); assay: as above; conditions: protein: recombinant; tags: His tag (Ni-NTA); hairpin, 10 bp stem, 4 nt loop
T2 sequence (P67809 1-180 K137A/Y138A): as the sequence (P67809 1-180 R97A/K98A) above, with A97R, A98K, K137A, Y138A counted along it

[3] = target: T3, YB-1C (UniProt P67809 1-180); assay: NMR (1H-15N HSQC); multiple peaks; NMR: 25 mM phosphate pH 6.8, 25 mM KCl, 298 K, 50-100 uM protein; EMSA: 20 mM HEPES pH 7.5, 60 mM KCl, room temperature; melting: 10 mM HEPES-KOH pH 7.6, 130 mM KCl, 30 C; conditions: protein: recombinant; tags: His tag (Ni-NTA); hairpin, 10 bp stem, 4 nt loop
T3 sequence (P67809 1-180): as the sequence (P67809 1-180 R97A/K98A) above, with A97R, A98K counted along it

[4] = target: YB-1 (full length) (UniProt P67809 1-324); assay: fluorescence melting; 130 mM KCl, 30 C; 10:1 protein:DNA; opening of hairpin; NMR: 25 mM phosphate pH 6.8, 25 mM KCl, 298 K, 50-100 uM protein; EMSA: 20 mM HEPES pH 7.5, 60 mM KCl, room temperature; melting: 10 mM HEPES-KOH pH 7.6, 130 mM KCl, 30 C; conditions: protein: recombinant, tags: His tag (Ni-NTA), label: 5' FAM, 3' BHQ1
Chain of YB-1 (full length) (P67809 whole entry): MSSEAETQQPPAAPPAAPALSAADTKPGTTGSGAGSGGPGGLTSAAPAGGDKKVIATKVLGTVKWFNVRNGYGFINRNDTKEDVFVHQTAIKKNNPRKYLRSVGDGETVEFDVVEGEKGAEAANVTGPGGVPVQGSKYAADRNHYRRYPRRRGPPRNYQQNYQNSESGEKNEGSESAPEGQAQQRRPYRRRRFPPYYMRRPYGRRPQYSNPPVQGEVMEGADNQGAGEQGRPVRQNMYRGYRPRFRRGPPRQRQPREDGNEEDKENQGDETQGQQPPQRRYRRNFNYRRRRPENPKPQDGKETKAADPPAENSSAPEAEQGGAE

[5] = target: T3, YB-1C; assay: fluorescence melting; 130 mM KCl, 30 C; 10:1 protein:DNA; NMR: 25 mM phosphate pH 6.8, 25 mM KCl, 298 K, 50-100 uM protein; EMSA: 20 mM HEPES pH 7.5, 60 mM KCl, room temperature; melting: 10 mM HEPES-KOH pH 7.6, 130 mM KCl, 30 C; conditions: protein: recombinant; tags: His tag (Ni-NTA); label: 5' FAM, 3' BHQ1; hairpin
[6] = target: T3, YB-1C; assay: NMR (1H-15N HSQC); single peaks; NMR: 25 mM phosphate pH 6.8, 25 mM KCl, 298 K, 50-100 uM protein; EMSA: 20 mM HEPES pH 7.5, 60 mM KCl, room temperature; melting: 10 mM HEPES-KOH pH 7.6, 130 mM KCl, 30 C; conditions: protein: recombinant; tags: His tag (Ni-NTA)
[7] = target: T1, YB-1-RK; assay: NMR (1H-15N HSQC); CSD binding unaffected vs wild type; NMR: 25 mM phosphate pH 6.8, 25 mM KCl, 298 K, 50-100 uM protein; EMSA: 20 mM HEPES pH 7.5, 60 mM KCl, room temperature; melting: 10 mM HEPES-KOH pH 7.6, 130 mM KCl, 30 C; conditions: protein: recombinant; tags: His tag (Ni-NTA)
[8] = target: T2, YB-1-KY; assay: as above; conditions: protein: recombinant; tags: His tag (Ni-NTA)
[9] = target: T3, YB-1C; assay: NMR (1H imino and 1H-15N HSQC); multiple peaks at 1:1, lost at 0.25:1; NMR: 25 mM phosphate pH 6.8, 25 mM KCl, 298 K, 50-100 uM protein; EMSA: 20 mM HEPES pH 7.5, 60 mM KCl, room temperature; melting: 10 mM HEPES-KOH pH 7.6, 130 mM KCl, 30 C; conditions: protein: recombinant; tags: His tag (Ni-NTA); hairpin, 10 bp stem, 4 nt loop
[10] = target: FUS RRM (UniProt P35637 275-385); assay: NMR; CSPs (data not shown); no stem opening at 1.75:1; NMR: 25 mM phosphate pH 6.8, 25 mM KCl, 298 K, 50-100 uM protein; EMSA: 20 mM HEPES pH 7.5, 60 mM KCl, room temperature; melting: 10 mM HEPES-KOH pH 7.6, 130 mM KCl, 30 C; conditions: protein: recombinant; hairpin, 10 bp stem, 4 nt loop
Chain of FUS RRM (P35637 275-385): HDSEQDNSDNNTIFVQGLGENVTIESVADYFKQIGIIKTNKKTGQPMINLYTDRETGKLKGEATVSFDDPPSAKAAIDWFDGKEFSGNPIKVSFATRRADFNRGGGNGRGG

Binder: ACAGACAGAACCCCUUCUGUCUGU (structured_RNA) [ACU-4G RNA stem/loop]
- binding result [1]: binds
- binding result [2]: binds
- binding result [3]: binds

Binder: GGGGGGGGTTAACCCCCCCC (structured_DNA) [DNA1 hairpin]
- binding result [4]: binds
- binding result [5]: binds

Binder: AAAAAAAAAA (ssDNA) [A10]
- binding result [6]: binds

Binder: TTTTTTTTTT (ssDNA) [T10]
- binding result [6]: binds

Binder: CCCCCCCCCC (ssDNA) [C10]
- binding result [6]: binds
- binding result [7]: binds
- binding result [8]: binds

Binder: ACAGACAGAACCCCTTCTGTCTGT (structured_DNA) [ACT-4G DNA stem/loop]
- binding result [9]: binds
- binding result [10]: binds
